31 molecules from patent US20170298096A1 (CANIMGUIDE THERAPEUTICS, published 2017) can be followed below.

Positions of bridges follow the written chain, without caps; N, C: chain ends. No end group written: not given here.

For assay [1], the target named is T1, His-tagged P3028 peptide (PGE73) (human).
T1 construct: also called His-tag-P3028; not shown: His-tag
T1 peptide: VFDEFKPLVEEPQNLIK
Nature of the assay: positional scan, PEPSCAN ELISA on chip. In general terms: An ELISA detects its analyte on a solid surface through an enzyme-linked reagent.

Assay [2] deals with Artificial Cell Surface (ACS): biotinylated cell surface proteins of PBMCs bound to streptavidin columns. The assay is described as follows: trypsin-digested dHSA adsorbed on ACS column, MALDI-TOF ms.
For assay [3] the target is unchanged. The assay is described as follows: Asp-N-digested dHSA adsorbed on ACS column, MALDI-TOF ms.
Assay [4] deals with T2, His-tagged P3028 (human, not fully specified).
T2 construct: the tag is put first after 'PGE73=His-tag-P3028'; also called PGE73; not shown: His-tag
T2 peptide: {His‑tag}-VFDEFKPLVEEPQNLIK
Nature of the assay: chip ELISA with His-tag labelled P3028, positional scan.

Assay [5] concerns the target T3, fusion protein of CD25 and the Fc-part of IgG (human, UniProt P01589 22-240, limits assumed).
T3 construct: also called rhuIL-2R alpha; rhuIL-2R
T3 sequence: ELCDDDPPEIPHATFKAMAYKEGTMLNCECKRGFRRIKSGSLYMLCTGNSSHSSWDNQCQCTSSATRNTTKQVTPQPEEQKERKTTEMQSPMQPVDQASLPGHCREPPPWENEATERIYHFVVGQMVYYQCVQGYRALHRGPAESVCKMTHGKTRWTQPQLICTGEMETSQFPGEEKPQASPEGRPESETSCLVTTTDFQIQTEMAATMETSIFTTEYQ
Nature of the assay: ELISA, CD25-Fc on protein G coated plates, biotinylated IL-2 with or without P3028.

The target of assay [6] is T4, His-tagged P3028 (human, also: His-tag, terminus and sequence not given here).
T4 construct: used in solution in the PEPSCAN (rampo) ELISA; also called PGE73; His-tag-P3028; not shown: His tag
T4 peptide: VFDEFKPLVEEPQNLIK
Nature of the assay: positional scan / PEPSCAN ELISA.

For assay [7], the target named is T2, His-tagged P3028. Nature of the assay: chip ELISA with His-tag labelled P3028.
Procedure: (§1) Positional scans were performed in each position of the lead cyclic peptide was replaced with each of the other 19 L-amino acids.
Assay [8] addresses T4, His-tagged P3028. The assay is described as follows: ELISA on chip with His-tag labeled P3028.
Procedure: as §1
The target of assay [9] is T4, His-tagged P3028. The assay is described as follows: positional scan, ELISA on chip with His-tag labeled P3028.
Procedure: as §1

For KKLDTVMVKLQLMTER (Four changes against P28R) [peptide 30680], in assay [1], the binding result is on record as “binds”. Regarding SLHTLFGDK, the Percent Absorbed in [2] stood at 36%. With VFLGMFLYEYARRHPDYSVVLLLRLAKTYETTLEKCCAAA [Asp-N-generated albumin fragment 348-388], in [3], the Percent Absorbed is 100%. CLRLIVMCG (bridge 1-8 (inferred); not fully specified): the binding result with His-tagged P3028 [4] is “binds”. LCTVATLR [albumin fragment LCTVATLR] returned a Percent Absorbed in [2] of 35%. Turning to KLCTVATLRETYGEMADCCAKQEPERNECFLQHK [Asp-N-generated albumin fragment 96-130], the Percent Absorbed in assay [3] was 100%. In [3], DSISSKLKECCEKPLLEKSHCIAEVEN [Asp-N-generated albumin fragment 293-319] had a Percent Absorbed of 65%. In assay [2], RPCFSALEVDETYVPK yielded a Percent Absorbed of 42%. For the molecule VFDEFKPLVEEPQNLIK [P3028], the binding result in [5] is “binds”. As for DETYVPKEFNAETFTHA [Asp-N-generated albumin fragment 518-535], in assay [3], the Percent Absorbed was determined as 86%. The same measure, in the same setting: as for ICTLSEKERQIKKQTALVELVKHKPKATKEQLKAVM [Asp-N-generated albumin fragment 536-572], the figure is 100%; as for DRVTKCCTESLVNRRPCFSALEV [Asp-N-generated albumin fragment 495-517], 87%. With FFVKLS (also called peptide 32230; FFVKLS) [P28 core], the binding result in the assay with His-tagged P3028 [6] is given as “binds”.

B1: cyclic peptide CLALNVMCG (peptide)
peptide: CLALNVMCG
modifications: bridge 1-8 (inferred); not fully specified
notes: also called lead cyclic peptide; lead looped peptide
B1: in the assay with His-tagged P3028 [7], the binding result was “binds”.

DDKETCFAEEGKKLVAASQAALGL [Asp-N-generated albumin fragment 586-609]: the Percent Absorbed in assay [3] was 100%. As to CLALNVMCG (bridge 1-8 (inferred), also called lead looped peptide) [lead cyclic peptide CLALNVMCG], the binding result with His-tagged P3028 [8] was “binds”. LAKYICENQDSISSKLKECCEKPLLEKHCIAEVEN [Asp-N-generated albumin fragment 283-319] displayed a Percent Absorbed in assay [3] of 100%.

B2: peptide 32814 (peptide)
peptide: RKLDTFFVKLSLFTERRR
notes: K1R and two added C-terminal R against P28R
Turning to B2, the binding result in assay [1] is reported as “binds”. In assay [3], YSVVLLLRLAKTYETTLEKCCAAADPHECYAKVF [Asp-N-generated albumin fragment 364-398] came in with a Percent Absorbed of 100%. LGEENFKALVLIAFAQYLQQCPFEDHVKLVNEVTEFAKTCVA [Asp-N-generated albumin fragment 37-79] returned a Percent Absorbed in assay [3] of 100%. LKECCEKPLLEK registered a Percent Absorbed in assay [2] of 36%. In the case of VPQVSTPTLVEVSR, the Percent Absorbed in assay [2] amounted to 59%. For the molecule YLSVVLNQLCVLHEKTPVSDRVTKCCCTESLVNRRPFSALEV [Asp-N-generated albumin fragment 475-517], in assay [3], the Percent Absorbed is 37%.

In [3], RVTKCCTESLVNRRPCFSALEVDETYVPKEFNAETFTFHA [Asp-N-generated albumin fragment 495-535] gave a Percent Absorbed of 100%.

As for CLRLIVMCG (bridge 1-8 (inferred)), in the assay with His-tagged P3028 [9], the binding result is reported as “binds”. DKLCTVATLRETYGEM [Asp-N-generated albumin fragment 96-112]: the Percent Absorbed in assay [3] was 65%. For CLRLNVFCG (bridge 1-8 (inferred); not fully specified), the binding result in the assay with His-tagged P3028 [4] is recorded as “binds”. Turning to VFDEFKPLVEEPQNLIK, the Percent Absorbed in [2] was found to be 60%. The molecule DHVKLVNEVTEFAKTCVA [Asp-N-generated albumin fragment 62-79] returned a Percent Absorbed in assay [3] of 100%.

On to CLRLNVFCG (bridge 1-8 (inferred)), for which the binding result in the assay with His-tagged P3028 [9] is recorded as “binds”.

Regarding FQNALLVR [albumin fragment FQNALLVR], in [2], the Percent Absorbed worked out at 41%.
